This passage reports stoichiometry N results from publication PMC5061367.

Assay [1] has as its target APOBEC3C I188 (human) (UniProt Q9NRW3). Kind of assay: SEC; 10 μg of purified enzyme on a 10 mL Superdex 200 column; 50 mM Tris pH 8.0, 200 mM NaCl, 1 mM DTT; masses from a Bio-Rad standard curve; fractions read by SDS-PAGE and Western blot. Background: Size exclusion chromatography separates by hydrodynamic size, large species first.
The target is the same in assay [2]. Kind of assay: cross-linking; 0.5 μM protein with 10 μM BS3 in 20 mM Hepes pH 7.5, 150 mM NaCl, 1 mM DTT, 1 hour at 21°C; SDS-PAGE and Western blot with anti-APOBEC3C. A general note: In western blotting, separated proteins are transferred to a membrane and probed.

Turning to “APOBEC3C I188 (from UniProt Q9NRW3 1-190) (enzyme)”, the stoichiometry N with APOBEC3C I188 (human) [1] and with APOBEC3C I188 (human) [2] was 2 throughout.

In general, stoichiometry N refers to the number of molecules, sites or subunits per partner or assembly.
